Tested on: MS2 coat protein
Assay: apparent KD of MS2 coat protein; higher = weaker reporter binding
Conditions: Eterna round: R107
Procedure, shortened: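 Designed RNA switches were transcribed on-chip from Illumina sequencing clusters and titrated with SNAP-549-labelled MS2 coat protein in twofold steps from 0.7 or 1.5 nM up to 3 µM. Each step lasted 0.8–1.5 h at first and 10–20 min by the end, in 100 mM Tris-HCl pH 7.5, 80 mM KCl and 4 mM MgCl2, without or with constant ligand. Apparent KD is the median, for each design, of fits to normalised cluster binding curves.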

[1] = input ligand: theophylline 20 uM
[2] = input ligand: tryptophan 2.4 mM
[3] = input ligand: theophylline 2 mM

Sequence | apparent KD of MS2 coat protein (input ligand: arginine 13.2 mM) | apparent KD of MS2 coat protein [1] | apparent KD of MS2 coat protein [2] | apparent KD of MS2 coat protein (input ligand: none) | apparent KD of MS2 coat protein [3]
ACGAACGAUAGUGAUACCAGACGAACAUGAGGAUCACCCAUGUUAUACACAUGGUUUAUUGUCCCUUGGCAGCACUUUAAGUUCG [JR_ExcTheophyB_Sub006] | 80.1 nM | 139 nM | 146 nM | – | –
AUAUGAUCAUACGAUACCAGAAAUGGUAUUCCUUUAUUUCUUACAUGAGGAUCACCCAUGUUCCCUUGGCAGCGUAUGAUCAUAU [ETHB #3] | 125 nM | 327 nM | 303 nM | – | –
UAUCCACAUGAGGAUCACCCAUGUUAGGAAGGAGCGGUGAAUGAACCAGGUAGGUCGCCUAGCUGAGGACCAUCAAUGGAUUCGU [Exclusion - Arginine A (Freestyle 14)] | 18.1 nM | 35.4 nM | 38.1 nM | 31.8 nM | 36.8 nM
UUUACAUGAGGAUCACCCAUGUGCCAUGAUACCAGACAUGAAAAUGUCCCUUGGCAGCAUGAAUGAUUCAUAGGAUAAUUAUGGG [Obrany] | 69.4 nM | 146 nM | 80.9 nM | – | –
ACAUGAGGAUCACCCAUGUAAGGUCUUGAUACCAGACGCGAAGUAGUCCCUUGGCAGCAAAUACGUGAGGGUCGCACAUGUGUAA [mcnmullin] | 18.4 nM | 35.9 nM | 27.8 nM | 33.1 nM | 59.8 nM
GGACUAACCAGAAGGAGCGGCACGCAGAAACUGCAAAUUCCUCCACACGAGGAUCACCCGUGUCAGGUAGGUCGCUGGUUAGUCG | 33.6 nM | 30.6 nM | 23.1 nM | 21.5 nM | 27.6 nM
CGUACAUGAGGAUCACCCAUGUUACAUGAUACCAGACAUGAAAAUGUCCCUUGGCAGCAUGGCGCUGAUAGGGCGGGAAACCCGA [Zabovresky] | 16.6 nM | 23.2 nM | 19.7 nM | 19.2 nM | 28.7 nM
ACCGCAUCCGUAUAGGAUGCGGCCCAUGAAGGAGCGUGGGAAACCACAGGUAGGUCGCAUGGAAAACAUGAGGAUCACCCAUGUG [Alien] | 114 nM | 442 nM | 489 nM | 524 nM | 920 nM
UCGUUUUAGUCGGCCGCCACUGUAUGCAUGUUUAACAUGAGGAUCACCCAUGUCCCGUACUAUUUCAGGACCGGGACGUAAUCGA [JR_SSTryptoB_Sub007] | 140 nM | 301 nM | – | – | 484 nM
AAUAAUAAGGCGGCCGCCACUAAACAUGAGGAUCACCCAUGUCUCGAGCGCAUACAUAAGGGAUGUAGGACCGGGCCAAUAAUAA [Exclusion - Tryptophan B (Freestyle 1)] | 19 nM | 25.7 nM | 21.3 nM | 23.5 nM | 23 nM
GAGGGUGGGUCUCUAAUCCGUUUGACGGAUACCAGCGAGAGAUAUCGCCCUUGGCAGCCGACGACAUGAGGAUCACCCAUGUAAA [#06 Exclusion-TheophyllineA] | 17.1 nM | 19.6 nM | 16.9 nM | – | –
ACAUGAGGGAUGGAUACCAGCGACAUGAGGAUCACCCAUGUAUGAGGAUCAGCCAUGUUAUGCCCUUGGCAGCCACGAACAUCAG [EDEMULLIN] | 27.3 nM | 45.2 nM | 29.8 nM | – | –
AAAGUUGAUGAGUUGUGUUUGUGUUCGGAAGGAGCGGGAAUUAUCUCAGGUAGGUCGCCGAACAUGAGGAUCACCCAUGUAUAAA [XArg-A 18 NuV2 original #dotplot2>1] | 40.2 nM | 80.1 nM | 82.6 nM | 98.7 nM | 206 nM
GGCACCAGGAGAAGGAGCGUGAAGACAUGAGGAUCACCCAUGUAGAGGCCCGUACUGGGUUCGCAGGUAGGUCGCUCCUGGUGCC [#1 Same State - Arginine B Attempt #13 (HarryS)] | 22.1 nM | 39.2 nM | 29.9 nM | 22.9 nM | 28.7 nM
AAAUUAUCGGCGGCCGCCACUAGAGUUAGGCUUAUGUACUGGGUAACAUGAGGAUCACCCAUGUAUAGGACCGGGCCAUAAUAAA [Same State - Tryptophan B (Freestyle 4)] | 38.7 nM | 88.9 nM | 72.1 nM | 55.2 nM | 57.5 nM
ACAUGAGGAUCACCCAUGUAAUGGCACGAUACCAGCUGAUCCCGUGGCCCUUGGCAGCGUCCGGUGUGGUCCGCCGGGUUGGAGC [DDDMULLIN] | 28.7 nM | 39.5 nM | 27 nM | – | –
AAAAUAUAGACGGCCGCCACUAUAAUCAUGAGGAACAUGAGGAUCACCCAUGUAUGAGGAUCACCUAGGACCGGGUCAUAUAAAA [#24 Exclusion Tryptophan B] | 14.2 nM | 31.3 nM | 25.6 nM | 23.6 nM | 29.5 nM
UACUUGCUGACGGCCGCCACUAGAACAUGAGGAUCACCCAUGUACCCGGUCCUACAUGGGAUGACUAGGACCGGGUCAGCAAGAU [(Trp1)-(Ms2)-(T)'-(M)'-(Trp2)_Design3] | 39.6 nM | 72.4 nM | – | – | 68.5 nM
UACUUGCUGACGGCCGCCACUAGAACAUGAGGAUCACCCAUGUACCCGGUCCUAAUCCUCAUGACUAGGACCGGGUCAGCAAGAU [(Trp1)-(Ms2)-(T)'-(M)'-(Trp2)_Design2] | 26.4 nM | 42.1 nM | – | – | 35.5 nM

Sequence | apparent KD of MS2 coat protein (input ligand: arginine 13.2 mM) | apparent KD of MS2 coat protein [1] | apparent KD of MS2 coat protein [2] | apparent KD of MS2 coat protein (input ligand: none) | apparent KD of MS2 coat protein [3]
CCUCAAUCGUCGGCCGCCACUGGAUCAUGCGGAUACAUGAGGAUCACCCAUGUGGGUGUGGUACGCAGGACCGGGACAAGACCCG [#15 Same State - Tryptophan B] | 164 nM | 579 nM | – | – | 1030 nM
ACAUGAGGAUCACCCAUGUACAUAAGGGAAGGAGCGCGGUGGAACGCAGGUAGGUCGCCCAUAAUAACAAUAAAUAAAUUCAUGU [#04 Same State - Arginine A] | 14.7 nM | 23.6 nM | 16.5 nM | 14.7 nM | 17.5 nM
AACAUGAGGAUCACCCAUGUGUCCUCGAAACGAGGACCGGUACGGCCGCCACUCGAAGCAUGUUGACGAAAAGUCAGCAUGCAAA [Mat - Exclusion - Trytophan A - D14] | 96.4 nM | 292 nM | – | – | 353 nM
UAUACAUGGGAUACCAUGGAUCCGAGUGAUACCAGCUAUCCGAAUAGCCCUUGGCAGCACAGUACAUGAGGAUCACCCAUGUAUA [Theo A SS t5] | 27.8 nM | 30.2 nM | 18.6 nM | – | –
UCGCUCUGGGUGAAUCCCAGAGAUAUGGAAGGAGCGGACGAAAGUCCAGGUAGGUCGCCAUCGAACAUGAGGAUCACCCAUGUAC [Same State - Arginine A (Freestyle 27)] | 62.1 nM | 57.8 nM | 76.8 nM | 47.6 nM | 76.6 nM
GAUGAUAUUGCAGAUACCAGACACAUGAGGAUCACCCAUGUCGCUGGGUUACUGGGUCGUGUCCCUUGGCAGCUGCGAUAUCAUC [Belize] | 33.6 nM | 89.2 nM | 42.1 nM | – | –
UCGUUUUAGUCGGCCGCCACUGUGAGCAUGGUUAACAUGAGGAUCACCCAUGUCCCGUACUAUAACAGGACCGGGACGUAGUUGC [#09 Same State - Tryptophan B] | 76.4 nM | 109 nM | – | – | 253 nM
AAGGUGAUCCGUGAUACCAGCUCAACAUGAGGAUCACCCAUGUAACGGACGAAAGUCCGGAGCCCUUGGCAGCACGGUUGCCAAG [(M)'-(Theo1)-(Ms2)-(Theo2)-(M'')-(T2)'_Design1b] | 29.4 nM | 62 nM | 83.8 nM | 127 nM | 12.5 nM
ACGAACGAUAGUGAUACCAGACGUACAUGAGGAUCACCCAUGUUAUACACAUGGUUUAUUGUCCCUUGGCAGCACGAUAAGUUCG [JR_ExcTheophyB_Sub004] | 109 nM | 263 nM | 282 nM | – | –
UGACAUUGCUCAGAUACCAGACAUGAGCAUCAGCCAUGUACCAAGAGUACAUGUUAAAAUGUCCCUUGGCAGCUGAGCAAUGUCU [Mod of Eli's TheoBX5 #AlternateMS2 v2] | 73.6 nM | 203 nM | 60.1 nM | 67.6 nM | 452 nM
CCGGCAUGUCGAAGGAGCGUCACAUGAGGAUCACCCAUGUACAUGAGGAUCACCCAUGUGUGACAGGUAGGUCGCGGCGGCCAGG [Exclusion Arginine B GF7] | 108 nM | 178 nM | 158 nM | 140 nM | 197 nM
GGGCGCUAUCCCGCGAGGGAUAGCGUUCGACGAGGACCGGUACGGCCGCCACUCGAACGAGUGGGUACAUGAGGAUCACCCAUGU [Gaa] | 26.3 nM | 50.9 nM | 25.9 nM | 33.5 nM | 33.3 nM
UCAAGUGAACCAUGGAAACAUUCAAUAGAUACCAGCAUUAAAACCUGCCCUUGGCAGCUAUGAACAUGAGGAUCACCCAUGUGAA [theeternabot_exclusion_MS2_Theo_A_21] | 17.3 nM | 23.3 nM | 19.2 nM | – | –
AAUCCAAGAAAUGAUACCAGUCCCACUCAGGACAUGAGGAUCACCCAUGUAAUACAGGGAGACCCUUGGCAGCAUCGAAUAAACA [theeternabot_sameState_MS2_Theo_B_33] | 178 nM | 479 nM | 1070 nM | – | –
ACAUCCAGGUUAAUCGUGGACAUGGUCGAUACCAGUAUUUUAAUCUACCCUUGGCAGCGACAUGAGGAUCACCCAUGUGCGAUGA [XTheo A #14] | 13.8 nM | 17.2 nM | 14.9 nM | – | –
UACACAUGACAUGAUACCAGCCCAUGUGAACAUGAGGAUCACCCAUGUAUGAGGACAUGAGGCCCUUGGCAGCAUGUAUACAUGA [Same State Theophylline B 2] | 11.6 nM | 12.7 nM | 11.4 nM | – | –
AAUAAGAUCCUCAUGUGAGUCGUACCAUAACGAGGACCGGUACGGCCGCCACUCGAACAUGAGGAUCACCCAUGUAGGUACGACA [M'-T'-T-MS2-T'' - Design 8] | 49.8 nM | 320 nM | – | – | 882 nM
ACGAUAGGACACGAGGAUCACCCGUGUGAUACCAGCCUGGAAACAGGCCCUUGGCAGCACAAAUACUCCAAUAACCUAUCGAAUA [TheoAX 10 #MicroSwitchBubble #AlternativeMS2] | 56.5 nM | 183 nM | 106 nM | 96.3 nM | 569 nM

Source: the supplement of paper PMC9170038
